The results in this text go back to patent US20080221021A1 (published 2008).

This assay has as its target T1, rat CRFBP C-terminally fused with a His6 sequence (rat, UniProt P24388 25-322).
T1 chain: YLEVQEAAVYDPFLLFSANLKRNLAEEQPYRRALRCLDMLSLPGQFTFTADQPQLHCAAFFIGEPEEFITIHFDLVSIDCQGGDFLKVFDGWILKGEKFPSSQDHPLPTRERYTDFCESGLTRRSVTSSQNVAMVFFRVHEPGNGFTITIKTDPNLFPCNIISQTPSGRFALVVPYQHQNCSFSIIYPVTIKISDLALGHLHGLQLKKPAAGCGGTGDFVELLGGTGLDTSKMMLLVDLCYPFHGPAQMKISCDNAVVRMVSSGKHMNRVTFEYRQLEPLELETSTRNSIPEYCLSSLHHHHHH
The assay is described as follows: competition binding.

Where no end group is shown, it is not given here.

B1: human/rat corticotropin-releasing factor (peptide)
peptide: SEEPPISLDLTFHLLREVLEMARAEQLAQQAHSNRKLMEII
modifications: not fully specified
B1 displayed an IC50 of 0.54 nM.
